This note sets out measurements from publication PMC8843702 (The Journal of Clinical Investigation, 2022).

One test addresses SARS-CoV-1 S protein (SARS-CoV-1, strain not named (P59594 …, UniProt P59594)). Briefly: SPR. The following applies: both partners purified.
The target in a further test is SARS-CoV-2 S protein (SARS-CoV-2, Wuhan-Hu-1 reference, UniProt P0DTC2). The test is described as follows: SPR. The settings on record: both partners purified.

By Kd is commonly meant the constant that tells how readily two partners part at equilibrium. High values mean lower affinity, low ones higher affinity.

B1: P14-44 (antibody, V domains shown)
VH: QVQLVQSGAEVKKPGASVKVSCKASGYIFTSYSMHWVRQAPGQGLEWMGTIKPSDDSTNYAQKFQGRVSMTRDTSTSTVYMELSSLRYEDTAVYYCAREARGYYDRSGYYHPGYFDYWGQGTLVTVSS
VL: QSVLTQPASVSGSPGQSITISCTGTSSDVGGYNFVSWYQQHPGKAPKLMIYEVSDRPSGVSSRFSGSKSGNTASLTISGLQAEDEADYYCFSYTTSTTWVFGGGTKLTVL
notes: also called P14-44 IgG; source: HEK293F, transfected, purified (Protein A)
As to B1, the Kd in the test with SARS-CoV-1 S protein was 4.3 nM; in the test with SARS-CoV-2 S protein, 0.55 nM.
